Data published in patent CN112794898A (YIKANG BIOLOGY SUZHOU CO LTD, dated 2021).

Target: SARS-CoV2 S蛋白受体结合域(RBD) (SARS-CoV2, UniProt P0DTC2 319-541)

B1: 单克隆抗体YK-CoV2-02的Fab (Fab, V domains shown)
VH: QVQLVESGGGLIQPGGSLRLSCAVSGFTVSSNYMSWVRQAPGKGLEWVSVIYPGGSTFYADSVKGRFTISRDNDNSKNTLYLQMNSLRAEDTAVYYCARDWVRGSNWGQGTLVTVSS
VL: EIVLTQSPATLSLSPGERATLSCRASQSVSNYLAWYQQKPGQAPRLLIYDASNRATGIPARFSGSGSGTDFTLTISSLEPEDFAVYYCQERSNWPSGTFGPGTKVDIK
Kd: 4.03 nM
